# From patent US10064926B2, “Peptides and combination of peptides for use in immunotherapy against hepatocellular carcinoma (HCC) and other cancers” (Immatics biotechnologies GmbH, priority 2014, dated 2018)
# Target: HLA-A*02 (Homo sapiens, UniProt P04439, D140Y/D185E/D98H/E176V/E277Q/G131W/G231S/I119V/I121R/I166T/I218V/N151K/N90K/P208A/P217A/Q86G/Q94H/R138H/R169H)
# Test: UV-ligand exchange / peptide binding to MHC class I (beta2m ELISA)
# Conditions: Table 10B; peptide exchange yield; HLA-A*02 peptides
# Method in brief: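 Peptide-MHC complexes generated by UV-mediated exchange of a photocleavable ligand for the test peptide. Exchange yield measured by streptavidin-capture ELISA detecting β2m of stabilized complexes (HRP anti-β2m, TMB, 450 nm). Samples diluted 100-fold, quantified against refolded HLA-A*0201 monomer standards (15-500 ng/ml).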
row,Substance,Peptide exchange (MHC class I binding score)
1,234 (YLEPYLKEV; listed as Homo sapiens) [compound 234],“++++” (≥75% = ++++)
2,235 (KLFEEIREI; listed as Homo sapiens) [compound 235],“++++” (≥75% = ++++)
3,236 (ALADKELLPSV; listed as Homo sapiens) [compound 236],“+++” (≥50 = +++)
4,237 (ALRGEIETV; listed as Homo sapiens) [compound 237],“+++” (≥50 = +++)
5,238 (AMPPPPPQGV; listed as Homo sapiens) [compound 238],“++” (≥20% = ++)
6,239 (FLLGFIPAKA; listed as Homo sapiens) [compound 239],“+++” (≥50 = +++)
7,240 (FLWERPTLLV; listed as Homo sapiens) [compound 240],“+++” (≥50 = +++)
8,241 (FVLPLLGLHEA; listed as Homo sapiens) [compound 241],“++” (≥20% = ++)
9,242 (GLFAPVHKV; listed as Homo sapiens) [compound 242],“+++” (≥50 = +++)
10,243 (GLLDNPELRV; listed as Homo sapiens) [compound 243],“+++” (≥50 = +++)
11,244 (KIAELLENV; listed as Homo sapiens) [compound 244],“++++” (≥75% = ++++)
12,245 (KLGAVFNQV; listed as Homo sapiens) [compound 245],“++++” (≥75% = ++++)
13,246 (KLISSYYNV; listed as Homo sapiens) [compound 246],“+++” (≥50 = +++)
14,247 (KLLDTMVDTFL; listed as Homo sapiens) [compound 247],“++++” (≥75% = ++++)
15,248 (KLNDLIQRL; listed as Homo sapiens) [compound 248],“+++” (≥50 = +++)
16,249 (LLLGERVAL; listed as Homo sapiens) [compound 249],“++++” (≥75% = ++++)
17,250 (NLAEVVERV; listed as Homo sapiens) [compound 250],“++++” (≥75% = ++++)
18,251 (RLFADILNDV; listed as Homo sapiens) [compound 251],“++++” (≥75% = ++++)
19,252 (RTIEYLEEV; listed as Homo sapiens) [compound 252],“+++” (≥50 = +++)
20,253 (RVPPPPQSV; listed as Homo sapiens) [compound 253],“++” (≥20% = ++)
21,254 (RVQEAIAEV; listed as Homo sapiens) [compound 254],“+++” (≥50 = +++)
22,255 (SLFGQDVKAV; listed as Homo sapiens) [compound 255],“+++” (≥50 = +++)

row,Substance,Peptide exchange (MHC class I binding score)
1,256 (SLFQGVEFHYV; listed as Homo sapiens) [compound 256],“+++” (≥50 = +++)
2,257 (SLLEKAGPEL; listed as Homo sapiens) [compound 257],“+++” (≥50 = +++)
3,258 (SLMGPVVHEV; listed as Homo sapiens) [compound 258],“+++” (≥50 = +++)
4,259 (TLITDGMRSV; listed as Homo sapiens) [compound 259],“++” (≥20% = ++)
5,260 (TLMDMRLSQV; listed as Homo sapiens) [compound 260],“+++” (≥50 = +++)
6,261 (VLFQEALWHV; listed as Homo sapiens) [compound 261],“+++” (≥50 = +++)
7,262 (VLPNFLPYNV; listed as Homo sapiens) [compound 262],“+++” (≥50 = +++)
8,263 (VLYPSLKEI; listed as Homo sapiens) [compound 263],“+++” (≥50 = +++)
9,264 (VMQDPEFLQSV; listed as Homo sapiens) [compound 264],“++++” (≥75% = ++++)
10,265 (WLIEDGKVVTV; listed as Homo sapiens) [compound 265],“++++” (≥75% = ++++)
11,266 (SLLESNKDLLL; listed as Homo sapiens) [compound 266],“+++” (≥50 = +++)
12,267 (ALNENINQV; listed as Homo sapiens) [compound 267],“+++” (≥50 = +++)
13,268 (KLYQEVEIASV; listed as Homo sapiens) [compound 268],“++++” (≥75% = ++++)
14,269 (YLMEGSYNKV; listed as Homo sapiens) [compound 269],“+++” (≥50 = +++)
15,270 (SVLDQKILL; listed as Homo sapiens) [compound 270],“+++” (≥50 = +++)
16,271 (LLLDKLILL; listed as Homo sapiens) [compound 271],“++++” (≥75% = ++++)
17,272 (QQLDSKFLEQV; listed as Homo sapiens) [compound 272],“+++” (≥50 = +++)
18,273 (AILETAPKEV; listed as Homo sapiens) [compound 273],“+++” (≥50 = +++)
19,274 (ALAEALKEV; listed as Homo sapiens) [compound 274],“++++” (≥75% = ++++)
20,275 (ALIEGAGILL; listed as Homo sapiens) [compound 275],“+++” (≥50 = +++)
21,276 (ALLEADVNIKL; listed as Homo sapiens) [compound 276],“++++” (≥75% = ++++)
22,277 (ALLEENSTPQL; listed as Homo sapiens) [compound 277],“+++” (≥50 = +++)

row,Substance,Peptide exchange (MHC class I binding score)
1,278 (ALTSVVVTL; listed as Homo sapiens) [compound 278],“++++” (≥75% = ++++)
2,280 (ATLNIIHSV; listed as Homo sapiens) [compound 280],“+++” (≥50 = +++)
3,281 (GLLAGDRLVEV; listed as Homo sapiens) [compound 281],“+++” (≥50 = +++)
4,282 (GQFPSYLETV; listed as Homo sapiens) [compound 282],“+++” (≥50 = +++)
5,283 (ILSGIGVSQV; listed as Homo sapiens) [compound 283],“+++” (≥50 = +++)
6,284 (KLDAFVEGV; listed as Homo sapiens) [compound 284],“+++” (≥50 = +++)
7,285 (KLLDLSDSTSV; listed as Homo sapiens) [compound 285],“+++” (≥50 = +++)
8,286 (KVLDKVFRA; listed as Homo sapiens) [compound 286],“++++” (≥75% = ++++)
9,287 (LIGEFLEKV; listed as Homo sapiens) [compound 287],“++++” (≥75% = ++++)
10,288 (LLDDSLVSI; listed as Homo sapiens) [compound 288],“+++” (≥50 = +++)
11,290 (NLIDLDDLYV; listed as Homo sapiens) [compound 290],“++++” (≥75% = ++++)
12,291 (QLIDYERQL; listed as Homo sapiens) [compound 291],“+++” (≥50 = +++)
13,292 (RIPAYFVTV; listed as Homo sapiens) [compound 292],“++” (≥20% = ++)
14,293 (FLASESLIKQI; listed as Homo sapiens) [compound 293],“++” (≥20% = ++)
15,294 (RLIDLHTNV; listed as Homo sapiens) [compound 294],“++++” (≥75% = ++++)
16,295 (SLFSSPPEI; listed as Homo sapiens) [compound 295],“+++” (≥50 = +++)
17,296 (SLLSGRISTL; listed as Homo sapiens) [compound 296],“+++” (≥50 = +++)
18,297 (TLFYSLREV; listed as Homo sapiens) [compound 297],“+++” (≥50 = +++)
19,298 (TMAKESSIIGV; listed as Homo sapiens) [compound 298],“++” (≥20% = ++)
20,299 (ALLRVTPFI; listed as Homo sapiens) [compound 299],“+++” (≥50 = +++)
21,300 (TLAQQPTAV; listed as Homo sapiens) [compound 300],“++” (≥20% = ++)
